Data from patent US20240301052A1 (LANOVA MEDICINES DEVELOPMENT, published 2024).
Each block holds one binder with its values, some of them ahead of it.

Tests used:
human SLC34A2 [1] = target: T1, human SLC34A2 (human, UniProt O95436 1-690); test: cell-based or functional assay
T1 sequence (looked up): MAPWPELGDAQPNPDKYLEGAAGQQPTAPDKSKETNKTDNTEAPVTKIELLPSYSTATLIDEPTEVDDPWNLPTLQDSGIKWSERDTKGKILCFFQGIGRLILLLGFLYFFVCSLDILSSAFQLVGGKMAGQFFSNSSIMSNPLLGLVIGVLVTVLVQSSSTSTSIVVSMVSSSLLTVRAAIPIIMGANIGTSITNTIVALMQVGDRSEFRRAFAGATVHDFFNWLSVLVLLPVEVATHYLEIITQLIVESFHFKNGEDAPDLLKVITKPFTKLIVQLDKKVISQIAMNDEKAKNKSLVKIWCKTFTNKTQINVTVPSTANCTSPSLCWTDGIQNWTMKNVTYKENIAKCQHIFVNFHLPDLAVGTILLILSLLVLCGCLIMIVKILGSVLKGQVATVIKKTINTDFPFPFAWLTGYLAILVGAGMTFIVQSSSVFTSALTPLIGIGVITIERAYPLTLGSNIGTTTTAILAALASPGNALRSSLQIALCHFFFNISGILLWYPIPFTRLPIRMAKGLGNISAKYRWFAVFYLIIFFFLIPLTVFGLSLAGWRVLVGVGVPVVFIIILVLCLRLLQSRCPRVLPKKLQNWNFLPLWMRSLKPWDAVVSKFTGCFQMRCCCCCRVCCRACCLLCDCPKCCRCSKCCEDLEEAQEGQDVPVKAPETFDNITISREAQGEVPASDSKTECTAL

human SLC34A2 [2] = target: T1, human SLC34A2; test: FACS, OVCAR3 cells
rat SLC34A2 = target: T2, rat SLC34A2 (rat, UniProt Q9JJ09 1-695); test: FACS, HEK293/Rat SLC34A2 cells
T2 construct: whole, on cells
T2 sequence (looked up): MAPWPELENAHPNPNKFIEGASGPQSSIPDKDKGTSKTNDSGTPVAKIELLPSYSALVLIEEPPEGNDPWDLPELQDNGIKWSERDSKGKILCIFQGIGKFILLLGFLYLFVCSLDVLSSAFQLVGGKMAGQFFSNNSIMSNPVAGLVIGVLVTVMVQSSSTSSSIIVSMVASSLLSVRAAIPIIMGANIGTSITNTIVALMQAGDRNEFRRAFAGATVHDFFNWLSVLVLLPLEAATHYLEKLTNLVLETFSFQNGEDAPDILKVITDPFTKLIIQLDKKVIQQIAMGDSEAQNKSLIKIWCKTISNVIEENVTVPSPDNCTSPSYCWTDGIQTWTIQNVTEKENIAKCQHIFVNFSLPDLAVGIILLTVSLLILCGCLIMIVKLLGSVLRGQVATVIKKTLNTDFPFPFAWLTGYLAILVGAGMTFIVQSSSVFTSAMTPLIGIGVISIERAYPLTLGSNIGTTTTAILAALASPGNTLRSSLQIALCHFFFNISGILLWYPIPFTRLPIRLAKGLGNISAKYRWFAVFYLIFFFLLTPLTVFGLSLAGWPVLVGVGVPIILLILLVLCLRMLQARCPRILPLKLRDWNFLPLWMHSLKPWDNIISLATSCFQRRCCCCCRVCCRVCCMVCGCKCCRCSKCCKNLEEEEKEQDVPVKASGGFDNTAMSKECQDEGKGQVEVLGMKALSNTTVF

human SLC34A2 [3] = target: T1, human SLC34A2; test: FACS, RMG-1 cells
Summary of the method: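 Flow-cytometric binding of chimeric antibodies (8-point, 4-fold dilutions from 200 nM) to RMG-1 cells, 60 min at 4° C, followed by fluorescent secondary antibody for 30 min at 4° C.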

human SLC34A2 [4] = target: T1, human SLC34A2; test: FACS, HEK293/human SLC34A2 cells
Description: The PTM-derisked VH chains were first tested for their impact on target binding. Cell based binding of PTM Abs on human SLC34A2 expressing cells were assessed using flow cytometry. Briefly, the HEK293/H_SLC34A2 cells were incubated with PTM Abs (from 200 nM, 4 folds dilution, 8 points). After incubation at 4° C. for 60 minutes, the cells were washed with FACS buffer twice, then stained with fluorescent conjugated secondary antibody at 4° C. for 30 minutes. After that the cells were washed twice and analyzed by flow cytometry.

Cynomolgus SLC34A2 = target: T3, Cynomolgus SLC34A2 (Cynomolgus, UniProt A0A2K5UHY1 1-690); test: FACS, cells expressing Cynomolgus SLC34A2
T3 construct: whole, on cells; also called Cyno SLC34A2
T3 sequence: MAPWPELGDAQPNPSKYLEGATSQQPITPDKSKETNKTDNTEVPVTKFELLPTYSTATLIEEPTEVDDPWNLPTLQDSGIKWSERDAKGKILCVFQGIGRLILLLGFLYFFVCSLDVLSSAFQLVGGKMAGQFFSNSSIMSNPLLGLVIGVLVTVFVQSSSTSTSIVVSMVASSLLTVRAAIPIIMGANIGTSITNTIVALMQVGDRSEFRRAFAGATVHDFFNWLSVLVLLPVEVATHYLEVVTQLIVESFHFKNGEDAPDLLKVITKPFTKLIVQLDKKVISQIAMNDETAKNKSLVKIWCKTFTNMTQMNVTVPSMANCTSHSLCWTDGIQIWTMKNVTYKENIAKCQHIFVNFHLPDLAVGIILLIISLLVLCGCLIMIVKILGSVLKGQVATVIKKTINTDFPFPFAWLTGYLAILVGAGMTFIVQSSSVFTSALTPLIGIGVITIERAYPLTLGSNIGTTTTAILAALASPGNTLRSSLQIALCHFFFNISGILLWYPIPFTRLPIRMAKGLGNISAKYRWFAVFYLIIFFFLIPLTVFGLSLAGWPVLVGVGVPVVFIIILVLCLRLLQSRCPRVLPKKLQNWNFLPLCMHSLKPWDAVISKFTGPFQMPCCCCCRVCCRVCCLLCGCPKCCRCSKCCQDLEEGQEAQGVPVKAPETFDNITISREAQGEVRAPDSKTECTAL

human SLC34A2 [5] = target: T1, human SLC34A2; test: cell-based or functional assay; remark: listed apart in the source
human SLC34A2 [6] = target: T1, human SLC34A2; test: cell-based or functional assay; remark: listed apart in the source

ADCC-HEK293 (human SLC34A2 [1]): 0.75 nM | ADCC-OVCAR3 (human SLC34A2 [1]): 0.15 nM | EC50 (human SLC34A2 [2]): 2.4 nM | EC50 (rat SLC34A2): 2.62 nM
B1: 91C9F1.p1.z7 hIgG1 (antibody, V domains shown)
VH: QVQLVQSGAEVKKPGSSVKVSCKTSGFFFTEYIIHWVRQAPGQGLEWIGGIIPNNDVTNYKQNFRGRVTLTADKSTSTAYMELSSLRSEDTAVYYCARWRNAYYSAMDSWGQGTTVTVSS
VL: DIQVTQSPSSLSTSVGDRVTITCTASQDVGTAVAWYQQKPGKSPKLLIYWASTRHTGVPERFTGSGSGTDFTLTISSVQPEDVATYFCQQYRTSPLTFGVGTKVEIK
notes: humanized hIgG1
Cytotoxic Effect - MDAH-2774 (human SLC34A2 [1]): 0.39 nM | Cytotoxic Effect - OVCAR3 (human SLC34A2 [1]): 0.014 nM

EC50 (human SLC34A2 [3]): 0.99 nM | Top (MFI) (human SLC34A2 [3]): 9470 MFI | EC50 (human SLC34A2 [4]): 1.14 nM | Top (MFI) (human SLC34A2 [4]): 32200 MFI | EC50 (Cynomolgus SLC34A2): 1.08 nM | Top (MFI) (Cynomolgus SLC34A2): 4080 MFI | ADCC reporter EC50 (human SLC34A2 [5]): 3.1 nM | ADCC reporter Top (MFI) (human SLC34A2 [5]): 487000 MFI
B2: xi30H9B8F9 hIgG1 (antibody, V domains shown)
VH: QVQLQQPGAELVKPGASVKMSCKTSGYTFTTNNMHWVKQTPGQGLEWIGAIYPGNGATAYNQKFKGKATLTADKSSSTAYMQLSSLTSEASAVYYCARGMYGHGAMDYWGQGTSVIVSS
VL: DIVMTQSHKFMSRSVGDRVRITCKASQDVGTAVAWYQQKPGQSPKLLIYWATTRHSGVPDRFTGSGSGTDFIFTISNVQSEDLADYFCQQYSSNPLTFGAGTKLELK
notes: chimeric, hIgG1
cytotoxicity EC50 (human SLC34A2 [6]): 0.84 nM | cytotoxicity Inhibition % (human SLC34A2 [6]): 91.7%

ADCC-HEK293 (human SLC34A2 [1]): 0.52 nM | ADCC-OVCAR3 (human SLC34A2 [1]): 0.3 nM | EC50 (human SLC34A2 [2]): 9.1 nM | EC50 (rat SLC34A2): 3.04 nM
B3: 63A11D5B4.p1.z9 hIgG1 (antibody, V domains shown)
VH: QVQLVQSGAEVVKPGASVKMSCKTSGYTFITYNMHWVRQAPGQGLEWIGAIYPGSGDTSYNQKFKGRVTLTADKSTSTAYMELSSLRSEDTAVYYCSISTIITTGAVDYWGQGTLVTVSS
VL: DIQMTQSPSSLSASVGDRVTITCKASQDVGTAVAWYQQKPGKVPKLLIYWTSTRHTGVPSRFSGSGSGTDFTLTISSLQPEDVATYYCQQYSRIPLTFGGGTKVEIK
notes: humanized hIgG1
Cytotoxic Effect - MDAH-2774 (human SLC34A2 [1]): 1.5 nM | Cytotoxic Effect - OVCAR3 (human SLC34A2 [1]): 0.06 nM

EC50 (human SLC34A2 [3]): 1.3 nM | Top (MFI) (human SLC34A2 [3]): 9230 MFI | EC50 (human SLC34A2 [4]): 1.57 nM | Top (MFI) (human SLC34A2 [4]): 28600 MFI | EC50 (Cynomolgus SLC34A2): 9.11 nM | Top (MFI) (Cynomolgus SLC34A2): 2430 MFI | ADCC reporter EC50 (human SLC34A2 [5]): 2.8 nM | ADCC reporter Top (MFI) (human SLC34A2 [5]): 215000 MFI
B4: xi91C9F1 hIgG1 (antibody, V domains shown)
VH: EVQLQQSGPELVKPGTSVKISCKTSGFFFTEYIIHWVKQSHGRSLEWIGGIIPNNGVTNYKQNFRGKAALTADKSSNTAYMELRSLTSEDSAVYYCARWRNGYYSAMDSWGQGTSVTVSS
VL: DIVVTQSHKFMSTSLGDRVSITCTASQDVGTAVAWYQQKPGHSPKLLIYWASTRHTGVPERFTGSGSGTDFTLTITNVQSEDLADYFCQQYRTSPLTFGVGTKLELK
notes: chimeric, hIgG1
cytotoxicity EC50 (human SLC34A2 [6]): 0.8 nM | cytotoxicity Inhibition % (human SLC34A2 [6]): 97.4%
